Reference: the supplement of paper PMC7877785
± gives the uncertainty stated by the source.

Test: self-splicing fitness, log relative to wild type (ln ratio); higher = more splicing; Tetrahymena group I intron in knt gene, E. coli kanamycin selection, DiMSum; sequences stand for … in CUCUCU…GGAGGGAAAAGUUAUCAGGCAUGCACCUGGUAGCUAGUCUUUAAACCAAUAGAUUGCAUCGGUUUAAAAGGCAAGACCGUCAAAUUGCGGGAAAGGGGUCAACAGCCGUUCAGUACCAAGUCUCAGGGGAAACUUUGAGAUGGCCUUGCAAAGGGUAUGGUAAUAAGCUGACGGACAUGGUCCUAACCACGCAGCCAAGUCCUAAGUCAACAGAUCUUCUGUUGAUAUGGAUGCAGUUCACAGACUAAAUGUCGGUCGGGGAAGAUGUAUUCUUCUCAUAAGAUAUAGUCGGACCUCUCCUUAAUGGGAGCUAGCGGAUGAAGUGAUGCAACACUGGAGCCGCUGGGAACUAAUUUGUAUGCGAAAGUAUAUUGAUUAGUUUUGGAGUACUCGUGGUCG
Summary of the method: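 Colonies from six replicate transformations of E. coli BL21(DE3) were pooled and amplicon-sequenced on an Illumina HiSeq 2500. The library placed an intron with all eight P1ex-region nucleotides randomised inside the knt kanamycin-resistance gene on pET-22b(+), and cells grew overnight at 37°C or 30°C on LB agar with or without 25 μg/mL kanamycin (plus 100 μg/mL carbenicillin, 50 μM IPTG, 0.2% rhamnose). Fitness is the DiMSum error-weighted combination of wild-type-normalised replicate fold changes, kanamycin versus none.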

| Sequence | self-splicing fitness (ln) (30 °C) | self-splicing fitness (ln) (37 °C) |
| --- | --- | --- |
| GCAGAGCAAUAUUACGAACC | -1.87 ± 0.32 | -1.24 ± 0.33 |
| GCAGAGCAAUAUUACGAAGA | -1.88 ± 0.36 | – |
| GCAGAGCAAUAUUACGACGC | -3.56 ± 0.3 | -1.69 ± 0.18 |
| GCAGAGCAAUAUUACGAGAC | -3.42 ± 0.21 | -2.03 ± 0.12 |
| GCAGAGCAAUAUUACGAGGG | -3.47 ± 0.22 | -2.2 ± 0.24 |
| GCAGAGCAAUAUUACGAUAA | -3.38 ± 0.41 | -2.72 ± 0.44 |
| GCAGAGCAAUAUUACGCACC | -2.11 ± 0.45 | -1.17 ± 0.48 |
| GCAGAGCAAUAUUACGCAUG | – | -2.3 ± 0.39 |
| GCAGAGCAAUAUUACGCCGC | -2.91 ± 0.38 | – |
| GCAGAGCAAUAUUACGCUGA | -2.11 ± 0.29 | -0.433 ± 0.19 |
| GCAGAGCAAUAUUACGGAUA | -1.48 ± 0.32 | -2.92 ± 0.4 |
| GCAGAGCAAUAUUACGGCCA | – | -2.11 ± 0.29 |
| GCAGAGCAAUAUUACGGCCU | – | -1.69 ± 0.28 |
| GCAGAGCAAUAUUACGGCGU | -0.715 ± 0.099 | -0.614 ± 0.11 |
| GCAGAGCAAUAUUACGGGAU | -3.53 ± 0.2 | -2.21 ± 0.19 |
| GCAGAGCAAUAUUACGGGCG | -3.2 ± 0.17 | -0.961 ± 0.14 |
| GCAGAGCAAUAUUACGGGGC | -3.05 ± 0.36 | – |
| GCAGAGCAAUAUUACGGUAU | -3.23 ± 0.15 | – |
| GCAGAGCAAUAUUACGUAAC | -2.84 ± 0.29 | 0.113 ± 0.22 |
| GCAGAGCAAUAUUACGUAGC | -3.31 ± 0.25 | -2.77 ± 0.22 |
| GCAGAGCAAUAUUACGUCAU | – | -1.4 ± 0.42 |
| GCAGAGCAAUAUUACGUGCA | -3.08 ± 0.29 | -2.21 ± 0.23 |
| GCAGAGCAAUAUUACGUUUA | -2.56 ± 0.3 | – |
| GCAUAGCAAUAUUACGAAUA | -2.07 ± 0.17 | -1.38 ± 0.19 |
| GCAUAGCAAUAUUACGACGC | -0.867 ± 0.13 | -0.196 ± 0.13 |

| Sequence | self-splicing fitness (ln) (30 °C) | self-splicing fitness (ln) (37 °C) |
| --- | --- | --- |
| GCAUAGCAAUAUUACGACUG | -1.68 ± 0.12 | -0.65 ± 0.16 |
| GCAUAGCAAUAUUACGAGAA | -2.57 ± 0.46 | -2.67 ± 0.41 |
| GCAUAGCAAUAUUACGAGCG | -1.3 ± 0.077 | -1.05 ± 0.085 |
| GCAUAGCAAUAUUACGAGGA | -2.47 ± 0.32 | -2.21 ± 0.22 |
| GCAUAGCAAUAUUACGAUAU | -1.9 ± 0.084 | 0.148 ± 0.09 |
| GCAUAGCAAUAUUACGAUUG | -2.38 ± 0.14 | -1.67 ± 0.15 |
| GCAUAGCAAUAUUACGCAGA | -2.62 ± 0.31 | -2.06 ± 0.17 |
| GCAUAGCAAUAUUACGCCUU | – | -1.42 ± 0.21 |
| GCAUAGCAAUAUUACGCGAA | -2.13 ± 0.1 | -1.62 ± 0.12 |
| GCAUAGCAAUAUUACGCGAU | -3.36 ± 0.16 | -1.93 ± 0.14 |
| GCAUAGCAAUAUUACGGCCG | -2.37 ± 0.36 | -0.909 ± 0.39 |
| GCAUAGCAAUAUUACGGGAC | -2.49 ± 0.17 | -0.217 ± 0.14 |
| GCAUAGCAAUAUUACGGGCG | -1.84 ± 0.12 | -1.09 ± 0.11 |
| GCAUAGCAAUAUUACGGUGG | -2.55 ± 0.15 | -1.31 ± 0.13 |
| GCAUAGCAAUAUUACGUAUA | -3.23 ± 0.29 | -1.52 ± 0.24 |
| GCAUAGCAAUAUUACGUAUC | -3.24 ± 0.21 | -2.49 ± 0.22 |
| GCAUAGCAAUAUUACGUGAC | -2.49 ± 0.2 | -0.677 ± 0.14 |
| GCAUAGCAAUAUUACGUGUC | -3.89 ± 0.2 | -1.96 ± 0.2 |
| GCAUAGCAAUAUUACGUUCU | -2 ± 0.096 | -0.899 ± 0.1 |
| GCAUAGCAAUAUUACGUUUA | -2.47 ± 0.16 | -1.61 ± 0.12 |
| GCAUAGCAAUAUUACGUUUU | -3.61 ± 0.19 | -1.82 ± 0.19 |
| GCCAAGCAAUAUUACGAGCA | -1.82 ± 0.14 | -1.11 ± 0.15 |
| GCCAAGCAAUAUUACGCAAG | -2.89 ± 0.17 | -1.7 ± 0.2 |
| GCCAAGCAAUAUUACGCACG | -2.84 ± 0.23 | -1.08 ± 0.16 |
| GCCAAGCAAUAUUACGCAUA | -1.3 ± 0.09 | -0.709 ± 0.085 |

| Sequence | self-splicing fitness (ln) (30 °C) | self-splicing fitness (ln) (37 °C) |
| --- | --- | --- |
| GCCAAGCAAUAUUACGCCAG | -3.37 ± 0.21 | -2.88 ± 0.24 |
| GCCAAGCAAUAUUACGCCCU | -1.4 ± 0.13 | -0.504 ± 0.16 |
| GCCAAGCAAUAUUACGCCUC | -1.32 ± 0.1 | -0.316 ± 0.1 |
| GCCAAGCAAUAUUACGCGAU | -3.73 ± 0.14 | -2.64 ± 0.18 |
| GCCAAGCAAUAUUACGCGCA | -0.985 ± 0.12 | 0.097 ± 0.11 |
| GCCAAGCAAUAUUACGCGCU | -1.33 ± 0.063 | -0.352 ± 0.082 |
| GCCAAGCAAUAUUACGCGGG | -3.54 ± 0.23 | -2.37 ± 0.18 |
| GCCAAGCAAUAUUACGCUAA | -0.682 ± 0.099 | -1.37 ± 0.13 |
| GCCAAGCAAUAUUACGCUCU | -0.234 ± 0.1 | -0.0648 ± 0.12 |
| GCCAAGCAAUAUUACGUAAC | -1.35 ± 0.087 | -0.157 ± 0.11 |
| GCCAAGCAAUAUUACGUUUA | -2.97 ± 0.19 | -2.28 ± 0.18 |
| GCCAAGCAAUAUUACGUUUC | -2.86 ± 0.18 | -0.805 ± 0.12 |
| GCCCAGCAAUAUUACGACAC | -1.64 ± 0.081 | -0.294 ± 0.11 |
| GCCCAGCAAUAUUACGACAU | -1.515 ± 0.012 | -0.82 ± 0.032 |
| GCCCAGCAAUAUUACGCAUU | -0.902 ± 0.05 | -0.248 ± 0.063 |
| GCCCAGCAAUAUUACGCCAA | -3.11 ± 0.14 | -1.71 ± 0.1 |
| GCCCAGCAAUAUUACGCCAU | -2.56 ± 0.22 | -3.35 ± 0.37 |
| GCCCAGCAAUAUUACGCCUC | -0.831 ± 0.075 | 0.0191 ± 0.11 |
| GCCCAGCAAUAUUACGCGCA | -1.44 ± 0.11 | -0.0956 ± 0.1 |
| GCCCAGCAAUAUUACGCGCC | -4.19 ± 0.42 | -0.613 ± 0.19 |
| GCCCAGCAAUAUUACGCUGU | -0.516 ± 0.063 | -0.482 ± 0.092 |
| GCCCAGCAAUAUUACGCUUG | -3.45 ± 0.2 | -1.79 ± 0.17 |
| GCCCAGCAAUAUUACGGAAA | -0.768 ± 0.075 | -0.234 ± 0.084 |
| GCCCAGCAAUAUUACGGAUC | -0.448 ± 0.044 | -0.289 ± 0.056 |
| GCCCAGCAAUAUUACGGCGC | -3.02 ± 0.17 | -1.87 ± 0.16 |

| Sequence | self-splicing fitness (ln) (30 °C) | self-splicing fitness (ln) (37 °C) |
| --- | --- | --- |
| GCCCAGCAAUAUUACGGCUA | -1.1 ± 0.095 | -0.549 ± 0.1 |
| GCCCAGCAAUAUUACGGCUC | -0.866 ± 0.11 | -0.219 ± 0.14 |
| GCCCAGCAAUAUUACGGGCG | -2.53 ± 0.091 | -1.7 ± 0.099 |
| GCCCAGCAAUAUUACGGUUG | -2.99 ± 0.12 | -1.95 ± 0.11 |
| GCCCAGCAAUAUUACGUCCG | -3.33 ± 0.26 | -2.83 ± 0.21 |
| GCCCAGCAAUAUUACGUUAG | -3.81 ± 0.14 | -2.26 ± 0.16 |
| GCCGAGCAAUAUUACGACAU | -2.286 ± 0.016 | -1.27 ± 0.034 |
| GCCGAGCAAUAUUACGACGA | -1.34 ± 0.11 | -0.792 ± 0.098 |
| GCCGAGCAAUAUUACGACGC | -2.86 ± 0.23 | -1.08 ± 0.21 |
| GCCGAGCAAUAUUACGACGG | -3.78 ± 0.23 | -2.76 ± 0.28 |
| GCCGAGCAAUAUUACGACUC | -3.37 ± 0.48 | 0.198 ± 0.28 |
| GCCGAGCAAUAUUACGAGCG | 0.333 ± 0.15 | -0.618 ± 0.19 |
| GCCGAGCAAUAUUACGAGUA | -2.36 ± 0.11 | -1.43 ± 0.086 |
| GCCGAGCAAUAUUACGAGUU | -1.62 ± 0.12 | -0.709 ± 0.15 |
| GCCGAGCAAUAUUACGCACA | -1.22 ± 0.2 | -1.51 ± 0.19 |
| GCCGAGCAAUAUUACGCGAG | -3.29 ± 0.32 | -2.03 ± 0.32 |
| GCCGAGCAAUAUUACGCUAC | -3.91 ± 0.31 | -4.08 ± 0.47 |
| GCCGAGCAAUAUUACGCUAU | -2.6 ± 0.29 | -1.75 ± 0.15 |
| GCCGAGCAAUAUUACGCUGU | -2.17 ± 0.14 | -1.57 ± 0.14 |
| GCCGAGCAAUAUUACGGAAC | -1.82 ± 0.12 | -0.538 ± 0.12 |
| GCCGAGCAAUAUUACGGAGA | -1.55 ± 0.093 | -1.15 ± 0.13 |
| GCCGAGCAAUAUUACGGCAC | -2.24 ± 0.19 | -1.71 ± 0.23 |
| GCCGAGCAAUAUUACGGCCG | – | -1.7 ± 0.47 |
